This is an account of results in US20040037843A1.

In general, IC50 refers to the concentration needed to halve the response being measured.

What all share (settings): remark: other sources report otherwise
Assay [1] has as its target HLA-A*0203 (human).
In assay [2] the target is HLA-A*0201 (human).
The target of assay [3] is HLA-A*0201 (human). Description: competition with 125I-labeled probe peptide for purified HLA, gel filtration.
In assay [4] the target is HLA-A*0206 (human). Described as above.
The target in assay [5] is HLA-A*6802 (human). The description is as above.
The target of assay [6] is HLA-A*0203 (human). The source holds these as a separate data set.
Assay [7] deals with HLA-A*0201 (human). The source holds these as a separate data set.
Assay [8] concerns the target HLA-A*0201 (human). Description: competition with 125I-labelled standard peptide for purified HLA.
Assay [9] deals with HLA-A*0201 (human). This is another data set of the same source.
The target in assay [10] is HLA-A*0202 (human).
Assay [11] concerns the target HLA-A*0203 (human). This is another data set of the same source.
Assay [12] addresses HLA-A*0206 (human).
For assay [13], the target named is HLA-A*6802 (human).
The target in assay [14] is HLA-A*0203 (human). Description: competition with 125I-labelled standard peptide for purified HLA.
Assay [15] has as its target HLA-A*0206 (human). Described as above.

Read-outs that look alike come from different tables or passages of the source.

B1: PSA peptide, position 203, 11 amino acids (peptide)
peptide: STCSGDSGGPL
For the molecule B1, the values for the relative binding ratio in assay [1] and in assay [2] were 0.0092 and 0.0005, respectively.

B2: Peptide 1418.29 (peptide)
peptide: GTPEGDLVYV
For the molecule B2, the 50% inhibitory concentration (IC50) in assay [3] amounted to 313 nM; in assay [4], 40 nM; in [5] it was 571 nM.

B3: peptide 1419.62, PAP.196.V10 (peptide)
peptide: GLHGQDLFGV
As to B3, the half-inhibitory concentration (IC50) in assay [6] amounted to 3.2 nM.

B4: peptide 1419.51, PAP.13 (peptide)
peptide: SLSLGFLFLL
Turning to B4, in assay [7], the half-inhibitory concentration (IC50) was determined as 40 nM.

B5: peptide 1419.13, PSA.116.V11 / HuK2.120.V11 (peptide)
peptide: DLMLLRLSEPV
B5 had an IC50 in assay [8] of 50 nM.

B6: peptide 1418.53, HuK2.178.V10 (peptide)
peptide: LLSNDMCARV
In the case of B6, the IC50 amounted to 5.3 nM in assay [9]; 0.7 nM in assay [10]; 4.3 nM in [11]; 10 nM in [12]; 1700 nM in assay [13].

B7: peptide 1419.24, PSA.166.V10 (peptide)
peptide: KLQCVDLHVV
Take B7: in assay [14], the IC50 was found to be 9.5 nM.

B8: peptide 1126.06, PSM.662 (peptide)
peptide: RMMNDQLMFL
As to B8, the concentration for half-maximal inhibition (IC50) in assay [15] was found to be 40 nM.
